B1: B5711 (antibody, V domains shown)
VH: QIQLQQSGPELVKPGASVKISCKASGDTFTDYYINWVKQKPGQGLEWIGWIYTGSGNTKYNEKFKGKTTLTVDTSSSTAYMQLNSLTSEDTAVYFCARYNPLITAVVPDYWGQGTTLTVSS
VL: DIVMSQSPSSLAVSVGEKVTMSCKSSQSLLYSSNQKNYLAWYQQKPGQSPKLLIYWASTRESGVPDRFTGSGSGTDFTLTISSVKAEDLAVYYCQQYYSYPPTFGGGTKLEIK
notes: Expressed in 293F cells, purified by protein G
B2: B5714 (antibody, V domains shown)
VH: QIQLQQSGPELVKPGASVKISCKASGYTFTDYYINWVKQKPGQGPEWIGWIYPGSANTKYSEKVKGKATLTVDTSSTTAYMQLSSLTSDDTAVYFCTRNDPLITAVVPDYWGQGTTLTVSS
VL: DIVMSQSPSSLAVSVGEKVTMSCRSSQSRLYSSNQKNYLAWYQQKPGQSPKLLIYWASTRESGVPDRFTGSGSGTDFTLTISSVKAEDLAVYYCQQYYNYPPTFGGGTKLEIK
B3: B5716 (antibody, V domains shown)
VH: QIQLVQSGAEVKKPGASVKVSCKASGYTFTDYYINWVRQAPGQGLEWMGWIYPGSANTKYSEKVKGRVTMTVDTSITTAYMELSRLRSDDTAVYYCTRNDPLITAVVPDYWGQGTTVTVSS
VL: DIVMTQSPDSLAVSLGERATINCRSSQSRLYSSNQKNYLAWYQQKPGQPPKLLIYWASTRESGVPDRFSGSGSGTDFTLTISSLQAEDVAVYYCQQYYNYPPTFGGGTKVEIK
notes: Humanized
B4: B5712 (antibody, V domains shown)
VH: QVQLVQSGAEVKKPGASVKVSCKASGDTFTDYYINWVRQAPGQGLEWMGWIYTGSGNTKYNEKFKGRVTMTRDTSISTAYMELSRLRSDDTAVYYCARYNPLITAVVPDYWGQGTTVTVSS
VL: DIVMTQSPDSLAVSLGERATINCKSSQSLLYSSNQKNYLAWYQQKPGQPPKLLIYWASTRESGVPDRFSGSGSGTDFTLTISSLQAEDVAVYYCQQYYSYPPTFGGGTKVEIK
notes: Humanized; also called HSP206A-CDRG
B5: B5715 (antibody, V domains shown)
VH: B3 VH with I2V, V72R, T77S, T97A
VL: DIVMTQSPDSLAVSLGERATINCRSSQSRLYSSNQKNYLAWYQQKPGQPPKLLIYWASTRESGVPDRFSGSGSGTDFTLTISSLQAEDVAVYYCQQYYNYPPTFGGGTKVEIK
notes: Humanized; also called HSP206B-CDRG
B6: B5713 (antibody, V domains shown)
VH: B4 VH with V2I, R72V
VL: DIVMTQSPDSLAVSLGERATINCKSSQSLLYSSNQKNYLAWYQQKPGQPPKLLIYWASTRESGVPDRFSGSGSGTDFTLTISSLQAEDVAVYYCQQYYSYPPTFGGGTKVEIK
notes: Humanized
B7: G08 antibody (antibody, V domains shown)
VH: B1 VH
VL: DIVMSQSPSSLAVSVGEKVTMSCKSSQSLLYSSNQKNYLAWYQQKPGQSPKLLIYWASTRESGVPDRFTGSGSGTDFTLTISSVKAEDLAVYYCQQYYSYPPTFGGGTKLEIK
notes: Mouse variable domains from a Fab phage library of immunized mice; also called G08 clone; mAb G08
B8: H06 antibody (antibody, V domains shown)
VH: B2 VH
VL: B2 VL
notes: Mouse variable domains from a Fab phage library of immunized mice; also called H06 clone; mAb H06

Data on 8 molecules can be found in patent publication US20220127357A1 (LEPU BIOPHARMA, published 2022).

Positions count from the first letter of the chain named.

T1 sequence (Q08722 19-139 limits assumed): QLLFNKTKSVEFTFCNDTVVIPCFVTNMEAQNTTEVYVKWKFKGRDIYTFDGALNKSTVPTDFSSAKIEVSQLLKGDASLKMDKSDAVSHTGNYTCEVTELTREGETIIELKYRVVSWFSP
T2 sequence (Q08722 19-139): as the sequence (Q08722 19-139 limits assumed) above

One assay concerns the target T1, human CD47-His protein (human, UniProt Q08722 19-139).
T1 construct: Recombinant human CD47 with His tag; also called human CD47-his tag protein; CD47 antigen; not shown: His tag
In words: SPR (Biacore) affinity ranking, antibody captured on protein A chip, 5 nM human CD47-his injected; affinity ranking, single 5 nM injection of human CD47-his, 130s dissociation. The procedure: (§1) To explore the binding kinetics of the humanized antibody, this example performed the affinity ranking using biacore. B5711, B5712, B5713, B5714, B5715 and B5716 mAbs were captured using protein A chip. 5 nM of human CD47-his tag protein was injected over captured antibodies for 120s at a flow rate of 30 μL/min. The antigen was allowed to dissociate for 130s.
Take B1: the kon (as a rule, the second-order rate constant of association) came out at 4.67e+06 M⁻¹ s⁻¹.

Another assay concerns the target T2, Tag2-CD47 (UniProt Q08722 19-139).
T2 construct: Tagged reagent of the HTRF assay; also called CD47 (HTRF assay)
In words: HTRF blocking assay, ratio 665 nm/615 nm; blocked ligand: Tag1-SIRP-α binding to Tag2-CD47. The text has this: (§2) To evaluate the activities of humanized anti-huCD47 mAbs on blocking SIRP-α interaction, the HTRF assay was employed. The interaction between Tag1-SIRP-α and Tag2-CD47 was detected by using anti-Tag1-Terbium (HTRF donor) and anti-Tag2-XL665 (HTRF acceptor). When the donor and acceptor antibodies were brought into close proximity due to SIRP-α and CD47 binding, excitation of the donor antibody triggers fluorescent resonance energy transfer (FRET) towards the acceptor antibody, which in turn emitted specifically at 665 nm. This specific signal is directly proportional to the extent of CD47/SIRP-α interaction. Thus, a molecule blocking CD47/SIRP-α interaction would cause a reduction in HTRF signal.
Anti-CD47 antibodies B5711, B5712, B5713, B5714, B5715, and B5716 were evaluated on their activities in blocking the interaction of CD47 and SIRP-α.
Background: Time-resolved FRET reads energy transfer from a long-lived donor to a nearby acceptor.
With B1, the IC50 (as a rule, the concentration that gives 50% inhibition) was 0.17 nM.

In the case of B2, the IC50 stood at 0.14 nM.

B3: the concentration for half-maximal inhibition (IC50) was 0.138 nM.

With B4, the IC50 worked out at 0.16 nM.

As for B5, the IC50 came out at 0.16 nM.

B6: the IC50 worked out at 0.21 nM.

The target of a further assay is T1, human CD47-His protein. In words: SPR (Biacore T200) full kinetics, antibody captured on protein A chip, serial dilution of human CD47-his injected. Here is the method:
The binding of the humanized antibodies to recombinant CD47 protein (human CD47-his tag) was tested by BIACORE™ using a capture method. B5712 and B5715 mAbs were captured using protein A chip. A serial dilution of human CD47-his tag protein was injected over captured antibody for 120s at a flow rate of […]. The antigen was allowed to dissociate for 600s. All the experiments were carried out on a Biacore T200.
Take B4: the Kd (in general, the constant that tells how readily two partners part at equilibrium) worked out at 0.847 nM; the koff (commonly a measure of how fast the partners let go of each other) came out at 0.00128 s⁻¹; the kon was found to be 1.51e+06 M⁻¹ s⁻¹.

With B5, binding was put at a Kd of 0.56 nM, the off-rate constant (koff) is 0.000287 s⁻¹ and the kon is 513000 M⁻¹ s⁻¹.

The target in a further assay is T1, human CD47-His protein. The assay is described as follows: ELISA on human CD47-His protein, OD 450nm. For orientation: An ELISA detects its analyte on a solid surface through an enzyme-linked reagent.
Regarding B1, the EC50 (usually the concentration giving half of the maximal effect) came out at 4.96 ng/mL.

On to B2, for which the EC50 was 6.49 ng/mL.

Molecule B3 registered an EC50 of 11.5 ng/mL.

The molecule B4 came in with an EC50 of 5.35 ng/mL.

B5 registered an EC50 of 7.09 ng/mL.

With B6, a half-maximal effect (EC50) was put at 7.6 ng/mL.

In a further assay the target is T2, Tag2-CD47. In words: HTRF blocking assay, ratio 665 nm/615 nm; blocked ligand: Tag1-SIRP-α binding to Tag2-CD47. This is another data set of the same source.
From the text: as §2, with “To further” for “To”, “functions” for “activities”, “the mouse” for “humanized”, “triggered” for “triggers”, “emits” for “emitted”
G08 and H06 antibodies were evaluated for their activity to blocking the interaction of CD47 and SIRP-α.
Regarding B7, the IC50 is 0.27 nM.

On to B8, for which the IC50 stood at 0.21 nM.

A further assay has as its target T3, cyno CD47-His protein (cynomolgus, UniProt A0A2K5X523 19-139).
T3 construct: also called cynomolgus CD47; not shown: His tag
The assay is described as follows: ELISA on cyno CD47-His protein, OD 450nm [Cont'd) B].
B1 gave an EC50 of 7.95 ng/mL.

B2 returned an EC50 of 8.45 ng/mL.

On to B3, for which the EC50 came out at 9.79 ng/mL.

In the case of B4, the midpoint of the response, the EC50, lay at 10.2 ng/mL.

On to B5, for which it took 9.23 ng/mL to reach a half-maximal effect (EC50).

Molecule B6 had an EC50 of 9.5 ng/mL.

In another assay the target is T1, human CD47-His protein. In words: ELISA, purified antibody titrated on CD47-His protein, OD 450nm.
B7 came in with an EC50 of 5.93 ng/mL.

B8: a half-maximal response (EC50) required 5.39 ng/mL.

The next assay concerns the target T1, human CD47-His protein. The assay is described as follows: SPR (Biacore) affinity ranking, antibody captured on protein A chip, 5 nM human CD47-his injected. Here is the method: as §1
A general note: In SPR one partner is held on a chip, and binding of the other changes the refractive index at the surface.
As for B1, the Kd worked out at 0.819 nM and the koff is 0.00383 s⁻¹.

In turn, B2 gave a Kd of 1.54 nM, a koff of 0.00291 s⁻¹ and a kon of 1.89e+06 M⁻¹ s⁻¹.

B3: binding was characterised by a dissociation constant (Kd) of 0.547 nM, the koff was 0.00452 s⁻¹ and the kon turned out to be 8.26e+06 M⁻¹ s⁻¹.

The molecule B4 yielded a Kd of 1.28 nM, a koff of 0.00276 s⁻¹ and a kon of 2.15e+06 M⁻¹ s⁻¹.

B5: the Kd was 0.979 nM, the koff came to 0.00234 s⁻¹ and the kon is 2.39e+06 M⁻¹ s⁻¹.

Molecule B6 returned a Kd of 1 nM, a koff of 0.00353 s⁻¹ and a kon of 3.53e+06 M⁻¹ s⁻¹.
